From the MegaScale stability set (Tsuboyama et al. 2023)

B1: EHEE_rd3_0053 (parent)
chain: TYTFKVDNKDQAKKAAKWAKKLGLSFQIEKHGDTFKITVQ

Variants of: B1
Test: folding stability dG (cDNA display proteolysis); higher = more stable
Details: PBS, room temperature

Variant | folding stability dG
TYTFKVDNKDQAKKAAKWAKKLGLSFQISKHGDTFKITVQ [E29S] | 2.27 kcal/mol
TYTFKVDNKDQAKKAAKWAKKLGLSFQIIKHGDTFKITVQ [E29I] | 2.24 kcal/mol
TYTFKVDNKDQAKKAAKWAKKLGLSFQIFKHGDTFKITVQ [E29F] | 1.95 kcal/mol
TYTFKVDNKDQAKKAAKWAKKLGLSFQIHKHGDTFKITVQ [E29H] | 2.01 kcal/mol
TYTFKVDNKDQAKKAAKWAKKLGLSFQINKHGDTFKITVQ [E29N] | 1.77 kcal/mol
TYTFKVDNKDQAKKAAKWAKKLGLSFQIGKHGDTFKITVQ [E29G] | 1.19 kcal/mol
TYTFKVDNKDQAKKAAKWAKKLGLSFQICKHGDTFKITVQ [E29C] | 2.64 kcal/mol
TYTFKVDNKDQAKKAAKWAKKLGLSFQIQKHGDTFKITVQ [E29Q] | 2.19 kcal/mol
TYTFKVDNKDQAKKAAKWAKKLGLSFQIKKHGDTFKITVQ [E29K] | 2.07 kcal/mol
TYTFKVDNKDQAKKAAKWAKKLGLSFQIAKHGDTFKITVQ [E29A] | 2.06 kcal/mol
TYTFKVDNKDQAKKAAKWAKKLGLSFQITKHGDTFKITVQ [E29T] | 2.48 kcal/mol
TYTFKVDNKDQAKKAAKWAKKLGLSFQILKHGDTFKITVQ [E29L] | 1.89 kcal/mol
TYTFKVDNKDQAKKAAKWAKKLGLSFQIDKHGDTFKITVQ [E29D] | 1.93 kcal/mol
TYTFKVDNKDQAKKAAKWAKKLGLSFQIMKHGDTFKITVQ [E29M] | 2.05 kcal/mol
TYTFKVDNKDQAKKAAKWAKKLGLSFQIRKHGDTFKITVQ [E29R] | 2.11 kcal/mol
TYTFKVDNKDQAKKAAKWAKKLGLSFCIEKHGDTFKITVQ [Q27C] | 2.84 kcal/mol
TYTFKVDNKDQAKKAAKWAKKLGLSFAIEKHGDTFKITVQ [Q27A] | 2.31 kcal/mol
TYTFKVDNKDQAKKAAKWAKKLGLSFGIEKHGDTFKITVQ [Q27G] | 1.53 kcal/mol
TYTFKVDNKDQAKKAAKWAKKLGLSFSIEKHGDTFKITVQ [Q27S] | 2.61 kcal/mol
TYTFKVDNKDQAKKAAKWAKKLGLSFRIEKHGDTFKITVQ [Q27R] | 2.61 kcal/mol
TYTFKVDNKDQAKKAAKWAKKLGLSFLIEKHGDTFKITVQ [Q27L] | 2.42 kcal/mol

Variant | folding stability dG
TYTFKVDNKDQAKKAAKWAKKLGLSFNIEKHGDTFKITVQ [Q27N] | 2.29 kcal/mol
TYTFKVDNKDQAKKAAKWAKKLGLSFEIEKHGDTFKITVQ [Q27E] | 2.22 kcal/mol
TYTFKVDNKDQAKKAAKWAKKLGLSFMIEKHGDTFKITVQ [Q27M] | 2.54 kcal/mol
TYTFKVDNKDQAKKAAKWAKKLGLSFHIEKHGDTFKITVQ [Q27H] | 2.52 kcal/mol
TYTFKVDNKDQAKKAAKWAKKLGLSFIIEKHGDTFKITVQ [Q27I] | 2.67 kcal/mol
TYTFKVDNKDQAKKAAKWAKKLGLSFFIEKHGDTFKITVQ [Q27F] | 2.6 kcal/mol
TYTFKVDNKDQAKKAAKWAKKLGLSFVIEKHGDTFKITVQ [Q27V] | 2.62 kcal/mol
TYTFKVDNKDQAKKAAKWAKKLGLSFDIEKHGDTFKITVQ [Q27D] | 1.9 kcal/mol
TYTFKVDNKDQAKKAAKWAKKLGLSFWIEKHGDTFKITVQ [Q27W] | 2.62 kcal/mol
TYTFKVDNKDQAKKAAKWAKKLGLSFTIEKHGDTFKITVQ [Q27T] | 2.71 kcal/mol
TYTFKVDNKDQAKKAAKWAKKLGLSFYIEKHGDTFKITVQ [Q27Y] | 2.58 kcal/mol
TYTFKVDNKDQAKKAAKWAKKLGLSFKIEKHGDTFKITVQ [Q27K] | 2.64 kcal/mol
TYTFKVDNKDQAKKAAKWAKKLGLSHQIEKHGDTFKITVQ [F26H] | 1.02 kcal/mol
TYTFKVDNKDQAKKAAKWAKKLGLSAQIEKHGDTFKITVQ [F26A] | 1.81 kcal/mol
TYTFKVDNKDQAKKAAKWAKKLGLSNQIEKHGDTFKITVQ [F26N] | -0.442 kcal/mol
TYTFKVDNKDQAKKAAKWAKKLGLSYQIEKHGDTFKITVQ [F26Y] | 2.29 kcal/mol
TYTFKVDNKDQAKKAAKWAKKLGLSTQIEKHGDTFKITVQ [F26T] | 1.34 kcal/mol
TYTFKVDNKDQAKKAAKWAKKLGLSGQIEKHGDTFKITVQ [F26G] | -0.311 kcal/mol
TYTFKVDNKDQAKKAAKWAKKLGLSLQIEKHGDTFKITVQ [F26L] | 2.13 kcal/mol
TYTFKVDNKDQAKKAAKWAKKLGLSSQIEKHGDTFKITVQ [F26S] | 1.03 kcal/mol
TYTFKVDNKDQAKKAAKWAKKLGLSCQIEKHGDTFKITVQ [F26C] | 2.68 kcal/mol

Variant | folding stability dG
TYTFKVDNKDQAKKAAKWAKKLGLSVQIEKHGDTFKITVQ [F26V] | 2.54 kcal/mol
TYTFKVDNKDQAKKAAKWAKKLGLSQQIEKHGDTFKITVQ [F26Q] | -0.496 kcal/mol
TYTFKVDNKDQAKKAAKWAKKLGLSIQIEKHGDTFKITVQ [F26I] | 2.64 kcal/mol
TYTFKVDNKDQAKKAAKWAKKLGLSPQIEKHGDTFKITVQ [F26P] | 0.848 kcal/mol
TYTFKVDNKDQAKKAAKWAKKLGLSMQIEKHGDTFKITVQ [F26M] | 2.05 kcal/mol
TYTFKVDNKDQAKKAAKWAKKLGLSWQIEKHGDTFKITVQ [F26W] | 1.88 kcal/mol
TYTFKVDNKDQAKKAAKWAKKLGLSFQLEKHGDTFKITVQ [I28L] | 1.84 kcal/mol
TYTFKVDNKDQAKKAAKWAKKLGLSFQREKHGDTFKITVQ [I28R] | 0.785 kcal/mol
TYTFKVDNKDQAKKAAKWAKKLGLSFQMEKHGDTFKITVQ [I28M] | 2.15 kcal/mol
TYTFKVDNKDQAKKAAKWAKKLGLSFQKEKHGDTFKITVQ [I28K] | 1.06 kcal/mol
TYTFKVDNKDQAKKAAKWAKKLGLSFQQEKHGDTFKITVQ [I28Q] | 0.977 kcal/mol
TYTFKVDNKDQAKKAAKWAKKLGLSFQWEKHGDTFKITVQ [I28W] | 1.53 kcal/mol
TYTFKVDNKDQAKKAAKWAKKLGLSFQHEKHGDTFKITVQ [I28H] | 0.125 kcal/mol
TYTFKVDNKDQAKKAAKWAKKLGLSFQSEKHGDTFKITVQ [I28S] | 1.26 kcal/mol
TYTFKVDNKDQAKKAAKWAKKLGLSFQYEKHGDTFKITVQ [I28Y] | 1.33 kcal/mol
TYTFKVDNKDQAKKAAKWAKKLGLSFQVEKHGDTFKITVQ [I28V] | 2.23 kcal/mol
TYTFKVDNKDQAKKAAKWAKKLGLSFQNEKHGDTFKITVQ [I28N] | -0.243 kcal/mol
TYTFKVDNKDQAKKAAKWAKKLGLSFQAEKHGDTFKITVQ [I28A] | 1.42 kcal/mol
TYTFKVDNKDQAKKAAKWAKKLGLSFQGEKHGDTFKITVQ [I28G] | -0.457 kcal/mol
TYTFKVDNKDQAKKAAKWAKKLGLSFQEEKHGDTFKITVQ [I28E] | 0.501 kcal/mol
